Results from publication PMC10183829 (2023).

B1: mCh-HsC53 [human] / GST-ATG8A [Arabidopsis thaliana] (parent complex)
chain 1: MEDHQHVPIDIQTSKLLDWLVDRRHCSLKWQSLVLTIREKINAAIQDMPESEEIAQLLSGSYIHYFHCLRILDLLKGTEASTKNIFGRYSSQRMKDWQEIIALYEKDNTYLVELSSLLVRNVNYEIPSLKKQIAKCQQLQQEYSRKEEECQAGAAEMREQFYHSCKQYGITGENVRGELLALVKDLPSQLAEIGAAAQQSLGEAIDVYQASVGFVCESPTEQVLPMLRFVQKRGNSTVYEWRTGTEPSVVERPHLEELPEQVAEDAIDWGDFGVEAVSEGTDSGISAEAAGIDWGIFPESDSKDPGGDGIDWGDDAVALQITVLEAGTQAPEGVARGPDALTLLEYTETRNQFLDELMELEIFLAQRAVELSEEADVLSVSQFQLAPAILQGQTKEKMVTMVSVLEDLIGKLTSLQLQHLFMILASPRYVDRVTEFLQQKLKQSQLLALKKELMVQKQQEALEEQAALEPKLDLLLEKTKELQKLIEADISKRYSGRPVNLMGTSL
chain 2: MAKSSFKISNPLEARMSESSRIREKYPDRIPVIVEKAGQSDVPDIDKKKYLVPADLTVGQFVYVVRKRIKLGAEKAIFVFVKNTLPPTAALMSAIYEEHKDEDGFLYMTYSGENTFG

Variants of: B1
Test: microscopy-based protein-protein interaction assay (on-bead binding, confocal); 1 μM C53 protein; glutathione-sepharose beads with GST-ATG8A; read off a plot

| Variant | response |
| --- | --- |
| chain 1 W269A, chain 1 W294A, chain 1 W312A | ~0.25 normalized fluorescence |
